Patent US20230192890A1 (published 2023)
Substitutions are numbered along the chain they refer to.

T1: Ala mutant SEQ ID NO: 32 (human)
T1 peptide: EENMDAQWMQDEMEIGY

T2: Ala mutant SEQ ID NO: 35 (human)
T2 peptide: EENMDDQWAQDEMEIGY

T3: Ala mutant having 3-amino acid substitution, SEQ ID NO: 45 (human)
T3 peptide: EENAAAQWMQDEMEIGY

T4: Ala mutant SEQ ID NO: 34 (human)
T4 peptide: EENMDDQAMQDEMEIGY

T5: Ala mutant having 3-amino acid substitution, SEQ ID NO: 46 (human)
T5 peptide: EENMDDAAAQDEMEIGY

B1: A11 (antibody, IgG1, V domains shown)
VH: AVTLDESGGGLQTPGGALSLVCKASGFDFSSYGMGWMRQAPGKGLEYVAAIRNDGSWTGYGAAVKGHATISRDNGQSTVRLQLNNLRAEDTGTYYCAKTTGSRGGSIDAWGHGTEVIVS
VL: ASTQPSSVSANLGGTVEITCSGGGRYYYGWYQQKSPGSAPVTVIYANDKRPSDIPSRFSGSKSGSTGTLTITGVQAEDEAVYFCGSAETSSYVFGAGTTLTVL
notes: Chicken variable regions in mouse chimeric antibody (IgG1) expression vectors; also called anti-PAD4 antibody A11; A11 etc
B2: G8 (antibody, IgG1, V domains shown)
VH: B1 VH with D28T, S31T, G33A, H67R, S71L, N84S, T99Y, R103S, D108G
VL: ASTQPSSVSANLGGTVEITCSGGNRNYYYGWYQQKSPGSAPVTLIYANDKRPSNIPSRFSGSKSGSTGTLTITGVQAEDEAVYFCGTADTGKYVFGAGTTLTVL
notes: Chicken variable regions in mouse chimeric antibody (IgG1) expression vectors; also called anti-PAD4 antibody G8; A11 etc
B3: H7 (antibody, IgG1, V domains shown)
VH: B1 VH with D28T, S31T, G33A, H67R, S71L, N84S, T99Y, R103S, D108G
VL: ASTQPSSVSANPGGTVEITCSGGSGRYYYGWYQQKSPGSAPVTVIYSSTHRPSNIPSRFSGSKSGSTATLTITGVQAEDEAVYFCGTADSSSYVFGAGTTLTVL
notes: Chicken variable regions in mouse chimeric antibody (IgG1) expression vectors; also called anti-PAD4 antibody H7; A11 etc
B4: G6 (antibody, IgG1, V domains shown)
VH: B1 VH with D28T, G35E, M37V, H67R, N74D, V79L, G92A, R103S
VL: B1 VL with G14E, E17K, R25N, V43L, D53N, S86T, E88D, S90G, S91K
notes: Chicken variable regions in mouse chimeric antibody (IgG1) expression vectors; also called anti-PAD4 antibody G6; A11 etc
B5: E9 (antibody, IgG1, V domains shown)
VH: B1 VH with A17T, A24G, D28T, A62S, H67R, G92A, T100S, R103S, I107V
VL: B1 VL
notes: Chicken variable regions in mouse chimeric antibody (IgG1) expression vectors; also called anti-PAD4 antibody E9; A11 etc
B6: G9 (antibody, IgG1, V domains shown)
VH: B1 VH with D28T, S31T, G33A, H67R, S71L, N84S, T99Y, R103S, D108G
VL: B1 VL with S2V, S6A
notes: Chicken variable regions in mouse chimeric antibody (IgG1) expression vectors; also called anti-PAD4 antibody G9; A11 etc
B7: Humanized Ab #H7-H4.00/L4.29 (IgG1κ) (antibody, V domains shown)
VH: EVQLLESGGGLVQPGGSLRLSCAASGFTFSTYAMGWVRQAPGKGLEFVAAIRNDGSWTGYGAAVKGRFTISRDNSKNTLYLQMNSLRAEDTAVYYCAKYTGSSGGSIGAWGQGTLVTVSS
VL: SYELTQPPSVSVSPGQTARITCSGGSGRYYYGWYQQKPGQAPVTVIYSSTHRPSGIPERFSGSNSGSTTTLTISGVQAEDEADYYCGTADSSSYVFGGGTKLTVLG
notes: Full-length heavy and light chains; also called humanized anti-PAD4 antibody derived from H7
B8: Humanized Ab #G8-H4.00/L4.29 (IgG1κ) (antibody, V domains shown)
VH: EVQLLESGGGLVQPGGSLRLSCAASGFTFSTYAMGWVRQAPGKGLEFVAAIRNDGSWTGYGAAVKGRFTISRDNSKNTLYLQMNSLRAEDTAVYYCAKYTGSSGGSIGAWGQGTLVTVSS
VL: B7 VL with S26N, G27R, R28N, S48A, S49N, T50D, H51K, S91T, S92G, S93K
notes: Full-length heavy and light chains; also called humanized anti-PAD4 antibody derived from G8; G8 VH H4.00 / VL L4.29

biological target: T6, full-length recombinant human PAD4 (human, UniProt Q9UM07 1-663); test: ELISA, human PAD4 on plate, antibody 0.0002441 ug/mL
T6 construct: also called peptidylarginine deiminase 4
T6 sequence (Q9UM07 whole entry): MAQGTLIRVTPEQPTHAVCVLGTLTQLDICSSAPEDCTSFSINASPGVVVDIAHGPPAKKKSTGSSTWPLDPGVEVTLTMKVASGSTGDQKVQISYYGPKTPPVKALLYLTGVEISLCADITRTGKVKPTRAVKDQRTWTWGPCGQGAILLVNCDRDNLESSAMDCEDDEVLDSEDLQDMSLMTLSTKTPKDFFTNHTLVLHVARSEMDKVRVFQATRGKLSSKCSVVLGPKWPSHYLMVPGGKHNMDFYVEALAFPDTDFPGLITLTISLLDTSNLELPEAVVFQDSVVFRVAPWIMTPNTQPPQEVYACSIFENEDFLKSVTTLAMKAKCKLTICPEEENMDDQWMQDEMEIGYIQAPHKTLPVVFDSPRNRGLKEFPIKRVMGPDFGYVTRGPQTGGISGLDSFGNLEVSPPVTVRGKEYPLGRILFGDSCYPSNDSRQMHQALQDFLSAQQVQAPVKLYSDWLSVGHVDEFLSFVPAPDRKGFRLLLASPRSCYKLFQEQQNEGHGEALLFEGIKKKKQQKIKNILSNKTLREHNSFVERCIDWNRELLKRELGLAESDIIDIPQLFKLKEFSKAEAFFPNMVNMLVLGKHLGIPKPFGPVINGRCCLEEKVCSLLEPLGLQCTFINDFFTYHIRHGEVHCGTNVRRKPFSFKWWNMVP

absorbance 490 nm/630 nm [OD]	Binder
0.206	B1
0.184	B2
0.217	B3
0.166	B4
0.176	B5
0.187	B6

biological target: T6, full-length recombinant human PAD4; test: ELISA, human PAD4 on plate, antibody 0.0009766 ug/mL

absorbance 490 nm/630 nm [OD]	Binder
0.511	B1
0.544	B2
0.537	B3
0.437	B4
0.489	B5
0.534	B6

biological target: T6, full-length recombinant human PAD4; test: Biacore T200, antibody captured by anti-human antibody, human PAD4 as analyte
Excerpt: The humanized anti-PAD4 antibodies derived from G8 and H7 were subjected to Biacore (GE Healthcare, Biacore T200) assay to evaluate their affinity. At that time, the combination of the frameworks was such that the H-chain framework was H4.00 and the L-chain framework was L4.29. The class of each antibody used was IgG1κ. Full-length recombinant human PAD4 was used as an antigen. A Human Antibody Capture kit (GE Healthcare, BR-1008-39) was used for the affinity assay. Specifically, in accordance with the standard protocol provided by the manufacture, NHS/EDC was used and an amine coupling method, in which a free carboxyl group is fixed on a surface of a CM5 chip, was used to immobilize a rabbit anti-human polyclonal antibody on the surface of a CM5 chip. Next, the humanized anti-PAD4 antibodies were each captured by the rabbit anti-human polyclonal antibody. Human PAD4 at each concentration was subjected to Biacore T200 measurement to create a kinetic sensorgram.

kon [M⁻¹ s⁻¹]	Binder
613000	B7

biological target: T6, full-length recombinant human PAD4; test: ELISA, human PAD4 on plate, antibody 0.25 ug/mL

absorbance 490 nm/630 nm [OD]	Binder
2.11	B1
2.1	B2
2.11	B3
2.07	B4
2.08	B5
2.08	B6

biological target: T6, full-length recombinant human PAD4; test: ELISA, human PAD4 on plate, antibody 1 ug/mL

absorbance 490 nm/630 nm [OD]	Binder
2.15	B1
2.12	B2
2.11	B3
2.11	B4
2.11	B5
2.1	B6

Biological target: T1, Ala mutant SEQ ID NO: 32
Test: ELISA, peptide on plate (10 ug/mL)

absorbance 490 nm/630 nm [OD]	Binder
0.083	B2
0.033	B3
0.035	B4
0.039	B6

Biological target: T2, Ala mutant SEQ ID NO: 35
Test: ELISA, peptide on plate (10 ug/mL)

absorbance 490 nm/630 nm [OD]	Binder
0.023	B1
0.233	B2
0.065	B3
0.015	B4
0.017	B5
0.253	B6

Biological target: T3, Ala mutant having 3-amino acid …
Test: ELISA, peptide on plate (10 ug/mL)

absorbance 490 nm/630 nm [OD]	Binder
0.039	B1
0.065	B2
0.016	B3
0.018	B4
0.022	B5
0.019	B6

Biological target: T4, Ala mutant SEQ ID NO: 34
Test: ELISA, peptide on plate (10 ug/mL)

absorbance 490 nm/630 nm [OD]	Binder
0.021	B1
0.04	B2
0.066	B3
0.042	B4
0.047	B5
0.038	B6

Biological target: T5, Ala mutant having 3-amino acid …
Test: ELISA, peptide on plate (10 ug/mL)

absorbance 490 nm/630 nm [OD]	Binder
0.043	B1
0.044	B3
0.083	B4
0.027	B5

biological target: T6, full-length recombinant human PAD4; test: ELISA, human PAD4 on plate, antibody 0.0625 ug/mL

absorbance 490 nm/630 nm [OD]	Binder
2.15	B1
2.12	B2
2.12	B3
2.12	B4
2.12	B5
2.11	B6

biological target: T6, full-length recombinant human PAD4; test: ELISA, human PAD4 on plate, antibody 6.104E-05 ug/mL

absorbance 490 nm/630 nm [OD]	Binder
0.063	B1
0.1	B2
0.111	B3
0.075	B4
0.07	B5
0.082	B6

biological target: T6, full-length recombinant human PAD4; test: Biacore T200, human PAD4 as analyte

Kd [nM]	Binder
≤ 9	B8
≤ 9	B7
≤ 9	B1
≤ 9	B2
≤ 9	B3
≤ 9	B4
≤ 9	B5
≤ 9	B6

biological target: full-length recombinant human or mouse PAD4 (Example 4; which of the two is not told for the result); test: cell-based or functional assay

Relative citrullination activity	Binder
64 relative to PBS = 100	B1
63 relative to PBS = 100	B2
35 relative to PBS = 100	B3
69 relative to PBS = 100	B4
59 relative to PBS = 100	B5
68 relative to PBS = 100	B6

biological target: T6, full-length recombinant human PAD4; test: ELISA, human PAD4 on plate, antibody 0.0039063 ug/mL

absorbance 490 nm/630 nm [OD]	Binder
1.31	B1
1.34	B2
1.35	B3
1.16	B4
1.36	B5
1.36	B6

biological target: T6, full-length recombinant human PAD4; test: ELISA, human PAD4 on plate, antibody 0.015625 ug/mL

absorbance 490 nm/630 nm [OD]	Binder
2.08	B1
2.08	B2
2.07	B3
2.01	B4
2.08	B5
2.07	B6
